From the RNAGym collection of RNA variant scans (doi:10.1073/pnas.2313332121)

B1: TPR t1 (parent)
chain: GACCAAUCUGCCCUCAGAGCUCGAGAACAUCUUCGGAUGCAGAGGAGGCAGGCUUCGGUGGCGCGAUAGCGCCAACGUCCUCAACCUCCAAUGCAUCCCACCACAUGAUGAUGCCUGAAGAGCCUUGGUUUUUUG

Variants of: B1
Experiment: polymerase ribozyme fitness, log enrichment relative to wild type (log ratio); higher = more active; in vitro selection for triplet polymerase activity
Method in brief: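 Mutant libraries of each subunit of a heterodimeric triplet polymerase ribozyme were built by PCR and transcribed. Each library went through one round of in vitro selection in triplicate: annealing with biotinylated primer, partner subunit and triplets, frozen incubation at −7 °C, gel excision of extended constructs, streptavidin-bead capture and RT-PCR. Input and output libraries were Illumina-sequenced; only genotypes with ≥10 input reads and ≥1 read per output were kept. Fitness is log2(genotype enrichment/wild-type enrichment), using inverse-variance-weighted replicate averages.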

Variant | polymerase ribozyme fitness (log ratio)
G45A C72U A91G U129A | -3.43
A46C G60U | -0.736
A46G U54G C62G U78C C123U | -4.11
G45A C53G C64U | -0.958
A46U C53A A111U | -4.45
A46G C49G G69C C104U | -3.16
G44A C49U U54G C70A U112G | -6.09
G45A A105G | -3.69
A46G G61A C80U C94U | -2.56
G45U A111U | -4.37
G45A U55C C62A C89G | -3.49
G44A A68G U112A | -3.21
G45A C53U C97U C115U U126C U130A | -5.76
A46C G63U U106A G117A | -3.84
G44A C70A C89A | -4.72
G45U C72A U87A A121C | 0.113
G45U A50U G117U | -4.81
G45C U55C A75U A95G U126A U129A | -4.26
G44U G58C | -0.197
G44A C89A | -1.04
G44C C53G G61A | -0.806
G45U C70U A119U G127A | -3.74
A46G G58C C99U C114G | -6.59
A46U A74U G113A | -1.99

Variant | polymerase ribozyme fitness (log ratio)
A46U A74U A91G C123G | -3.09
A46C C56A C73A A91U C97U | -4.49
G44A C70U A103U G117U | -5.43
G44U C62U G63C | -2.59
G45U G60C C88G | -1.14
G44A C104U | -0.855
G44C A95U G110A | -2.88
G44U G48U G57C C104A | -3.32
G45A G52C | -1.37
A46C G47A C53A U78C | -1.4
G45A G51U | -4.34
G45A G51A | -3.66
G44A C102U | -4.04
A46G G113A G120U U133A | -3.17
G44A G77C | -0.688
G45U G113U | -3.73
A46U A105C A119G C124A | -1.39
A46G G117C | -3.96
A46U C62G C88A | -4.01
A46G C53U C89U G128A | -3.9
G45U C114G | -3.8
G45U C114A | -0.0443
G44U C49A A50C C72A | -1.95
G44C G47U C53A C76G C102G G110C | -7.23

Variant | polymerase ribozyme fitness (log ratio)
G44U C53A G69C A105U | -5.22
G45U C62A C89G U112A | -4.99
G44U C82G | -1.77
G45U C56G C73A U116C | -4.92
G44A G63A A84U | -2.6
G44U C114G | -3.66
A46G C79A | -1.06
G44U C56G G61U C89A C94G G122A | -4.78
A46U A91G | -1.96
G45A C53A U81C | -0.267
G44A G60A U106G U112A | -1.83
G44C U59G C80A | -4.66
A46C C72G G135U | -2.4
A46U C56A C72G G93A G120A C123U | -4.15
G45U G47C C85A C88U | -4.69
G44A G48U C53A G60U | -1.14
A46G A50C C85U A90G | -1.11
A46C G61U U106A | 0.556
G44A G69C C102A G122A | -5.57
G45U C76G U112A A121U | 0.648
G44U C72U A121U | 0.777
G45C G58C | -0.221
G45U C85U | -2.01
G44A G60A A74U | -0.926

Variant | polymerase ribozyme fitness (log ratio)
G45U G77U U132C | -1.59
G45U G110A | -2.13
A46U A84U | -1.28
A46U A84C | -1.04
A46C C72U U81A A105C | -4.47
G44U C72G G120C | -0.514
A46G G120C G128C | -2.6
A46U C56U | -0.82
G45C C89U U133A | -1.58
A46U C70U C124U | -0.517
G44U A121G | 0.89
G44U C70U C72U C79U G122A | -2.61
G44U C82U U106G G120A | -0.344
A46G C56A C101G U126C | -2.14
A46U C56A G93A G120A C123U | -1.16
G45A A50U U130C | -0.0855
G45U C97A U112A | -5.81
G45U C56G G63C C101U | -5.92
G44A G60A C89G C101A C104U | -2.79
G44A C80A | -3.93
G45A C80U C115A A121G | 0.603
G45A C94U G120C | 0.045
G45A G63A | -1.39
G44U A46U U112C | -0.701

Variant | polymerase ribozyme fitness (log ratio)
G45U C114U A121U | -1.71
G44C C80U C88A | -2.94
G45U G58A G77A C82A | -1.74
G44A C72A U78C A119G | 0.491
G45C C53G U81A A91C | -4.15
G45A C85U C94A | -2.05
G45A G110A | -1.34
A46G G63C A84G C88U C124U | -0.641
G44U C97A | -6.15
G45U G60A C82G C85G G117A | -3.09
G45C U55A C56A | -2.11
G45U G52U G61C | -2.32
G45C C53A G120A U129G | -1.07
G44U C72U | -1.36
G45U C124G U133A | 0.519
G44A A50U G60U U132C | -2.38
G44C G48A | -0.967
G44U A50C C73U U92C | -2.12
A46C C56A G110U | -2.45
G45U C64U A121G | -0.662
G45A G63A C104A | -3.61
G45C C53U U78A U112C | 0.64
G45U U132A | -1.91
G45A G48U | -1.58

Variant | polymerase ribozyme fitness (log ratio)
G45U A66C G93C U96C C115A | -4.28
A46C G48A G51A U87G C123A | -1.77
G45A C114A | -1.97
G45C G60C U78A C89A G120C G127A | -5.17
A46U C53A | -0.885
A46G C70G C94U | -3.9
G44C G60U U116C C124A | -0.335
G44A G45U G77A U129C | -3.02
G44U G51C | -5.32
A46C C56A A91U C97U | -3.95
A46C G51C | -4.63
A46U C79A C115G | -5.77
G44A A119G C123A | 0.608
A46C C114U | -2.43
G45U C104A G110U A118C | -5.08
G44C C98U U126C | -3.05
G45U C101A C102U | -5.42
G44C A83U | -0.396
A46C C62U U106G | -2.88
G45U C124A | 0.716
G45C U96A G113C | -3.21
G45A C72U C89G A91C | -1.81
G44C C70A | -2.37
A46U C72G | -1.4

Variant | polymerase ribozyme fitness (log ratio)
A46G G110U U116A | -4.29
G44U A118U | -0.733
G45C A46U | -2.34
G45A A121U | 1.1
G44U G65A | -6.04
A46G C56A U133G | -0.786
A46U C72G C114G | -3.52
A46U C72G C114U | -4.52
G45C C53G C73A | -0.795
G45C C62A | -2.24
G44C G61A A66G A75G | -2.01
G44A G60U | -0.542
G45U C82A C102U G122A | -3.36
A46U C62A | -2.13
G45U C104U A119G U130A | -1.09
G44U G47A G63C G120U U130G | -4.01
G45C U125A | -1.86
G44C C49U C114U | -3.24
G44U C124A | 1.15
A46G A90C C99U U106C | -4.81
G44A C89G C115A C124A U129A | -1.46
G44U A75U U92C | -1.34
A46U A90U A105U C115U C124U | -5.04
